Values of other authors in PMC10136230.

Target: AGE-albumin (UniProt P02768)
Assay: 125I-labeled ligand binding

Kd: 0.2 µM
Substance: RAGE (from UniProt Q15109)
